# Test results from US20200087373A1 (UNIVERSITY OF COPENHAGEN, published 2020).
# Ends that are not written are not given here. * marks the point of attachment. C18 diacid = O=C(O)CCCCCCCCCCCCCCCCC(=O)*; Stearoyl = CCCCCCCCCCCCCCCCCC(=O)*; Palmitoyl = CCCCCCCCCCCCCCCC(=O)*; Myristoyl = CCCCCCCCCCCCCC(=O)*; Lauroyl = CCCCCCCCCCCC(=O)*
# T1: human GIP receptor (human, UniProt P48546 22-466)
# T1 construct: whole, on cells; also called hGIPR
# T1 sequence (looked up): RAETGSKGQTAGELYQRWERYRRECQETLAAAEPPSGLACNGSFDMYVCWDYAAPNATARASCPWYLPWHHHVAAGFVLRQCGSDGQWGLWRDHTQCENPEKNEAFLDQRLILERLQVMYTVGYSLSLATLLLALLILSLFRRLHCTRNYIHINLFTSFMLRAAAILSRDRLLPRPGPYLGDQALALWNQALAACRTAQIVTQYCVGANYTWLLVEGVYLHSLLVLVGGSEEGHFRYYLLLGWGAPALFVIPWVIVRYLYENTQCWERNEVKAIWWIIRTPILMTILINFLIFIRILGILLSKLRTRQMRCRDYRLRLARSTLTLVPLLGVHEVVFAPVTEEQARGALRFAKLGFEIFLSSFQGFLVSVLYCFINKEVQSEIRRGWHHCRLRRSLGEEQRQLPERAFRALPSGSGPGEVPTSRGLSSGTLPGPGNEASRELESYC
# B1: AT116 [hGIP(3-30)NH2-C12/18] (peptide)
# peptide: EGTFISDYSIAMDKIK(Lauroyl)QQDFVNWLLAQK-NH2
# modifications: N-terminus assumed
# SMILES: CCCCCCCCCCCC(=O)NCCCC[C@H](NC(=O)[C@@H](NC(=O)[C@H](CCCCN)NC(=O)[C@H](CC(=O)O)NC(=O)[C@H](CCSC)NC(=O)[C@H](C)NC(=O)[C@@H](NC(=O)[C@H](CO)NC(=O)[C@H](Cc1ccc(O)cc1)NC(=O)[C@H](CC(=O)O)NC(=O)[C@H](CO)NC(=O)[C@@H](NC(=O)[C@H](Cc1ccccc1)NC(=O)[C@@H](NC(=O)CNC(=O)[C@@H](N)CCC(=O)O)[C@@H](C)O)[C@@H](C)CC)[C@@H](C)CC)[C@@H](C)CC)C(=O)N[C@@H](CCC(N)=O)C(=O)N[C@@H](CCC(N)=O)C(=O)N[C@@H](CC(=O)O)C(=O)N[C@@H](Cc1ccccc1)C(=O)N[C@H](C(=O)N[C@@H](CC(N)=O)C(=O)N[C@@H](Cc1c[nH]c2ccccc12)C(=O)N[C@@H](CC(C)C)C(=O)N[C@@H](CC(C)C)C(=O)N[C@@H](C)C(=O)N[C@@H](CCC(N)=O)C(=O)N[C@@H](CCCCN)C(N)=O)C(C)C
# B2: AT117 [hGIP(3-30)NH2[H18K]-C16/18] (peptide)
# peptide: EGTFISDYSIAMDKIK(Palmitoyl)QQDFVNWLLAQK-NH2
# modifications: N-terminus assumed
# SMILES: CCCCCCCCCCCCCCCC(=O)NCCCC[C@H](NC(=O)[C@@H](NC(=O)[C@H](CCCCN)NC(=O)[C@H](CC(=O)O)NC(=O)[C@H](CCSC)NC(=O)[C@H](C)NC(=O)[C@@H](NC(=O)[C@H](CO)NC(=O)[C@H](Cc1ccc(O)cc1)NC(=O)[C@H](CC(=O)O)NC(=O)[C@H](CO)NC(=O)[C@@H](NC(=O)[C@H](Cc1ccccc1)NC(=O)[C@@H](NC(=O)CNC(=O)[C@@H](N)CCC(=O)O)[C@@H](C)O)[C@@H](C)CC)[C@@H](C)CC)[C@@H](C)CC)C(=O)N[C@@H](CCC(N)=O)C(=O)N[C@@H](CCC(N)=O)C(=O)N[C@@H](CC(=O)O)C(=O)N[C@@H](Cc1ccccc1)C(=O)N[C@H](C(=O)N[C@@H](CC(N)=O)C(=O)N[C@@H](Cc1c[nH]c2ccccc12)C(=O)N[C@@H](CC(C)C)C(=O)N[C@@H](CC(C)C)C(=O)N[C@@H](C)C(=O)N[C@@H](CCC(N)=O)C(=O)N[C@@H](CCCCN)C(N)=O)C(C)C
# B3: AT141 [hGIP(5-30)NH2-C18diacid/16] (peptide)
# peptide: TFISDYSIAMDK(C18 diacid)IHQQDFVNWLLAQK-NH2
# modifications: N-terminus assumed
# SMILES: CC[C@H](C)[C@H](NC(=O)[C@H](CO)NC(=O)[C@H](Cc1ccc(O)cc1)NC(=O)[C@H](CC(=O)O)NC(=O)[C@H](CO)NC(=O)[C@@H](NC(=O)[C@H](Cc1ccccc1)NC(=O)[C@@H](N)[C@@H](C)O)[C@@H](C)CC)C(=O)N[C@@H](C)C(=O)N[C@@H](CCSC)C(=O)N[C@@H](CC(=O)O)C(=O)N[C@@H](CCCCNC(=O)CCCCCCCCCCCCCCCCC(=O)O)C(=O)N[C@H](C(=O)N[C@@H](Cc1c[nH]cn1)C(=O)N[C@@H](CCC(N)=O)C(=O)N[C@@H](CCC(N)=O)C(=O)N[C@@H](CC(=O)O)C(=O)N[C@@H](Cc1ccccc1)C(=O)N[C@H](C(=O)N[C@@H](CC(N)=O)C(=O)N[C@@H](Cc1c[nH]c2ccccc12)C(=O)N[C@@H](CC(C)C)C(=O)N[C@@H](CC(C)C)C(=O)N[C@@H](C)C(=O)N[C@@H](CCC(N)=O)C(=O)N[C@@H](CCCCN)C(N)=O)C(C)C)[C@@H](C)CC
# B4: AT119 [hGIP(5-30)NH2-C12/16] (peptide)
# peptide: TFISDYSIAMDK(Lauroyl)IHQQDFVNWLLAQK-NH2
# modifications: N-terminus assumed
# SMILES: CCCCCCCCCCCC(=O)NCCCC[C@H](NC(=O)[C@H](CC(=O)O)NC(=O)[C@H](CCSC)NC(=O)[C@H](C)NC(=O)[C@@H](NC(=O)[C@H](CO)NC(=O)[C@H](Cc1ccc(O)cc1)NC(=O)[C@H](CC(=O)O)NC(=O)[C@H](CO)NC(=O)[C@@H](NC(=O)[C@H](Cc1ccccc1)NC(=O)[C@@H](N)[C@@H](C)O)[C@@H](C)CC)[C@@H](C)CC)C(=O)N[C@H](C(=O)N[C@@H](Cc1c[nH]cn1)C(=O)N[C@@H](CCC(N)=O)C(=O)N[C@@H](CCC(N)=O)C(=O)N[C@@H](CC(=O)O)C(=O)N[C@@H](Cc1ccccc1)C(=O)N[C@H](C(=O)N[C@@H](CC(N)=O)C(=O)N[C@@H](Cc1c[nH]c2ccccc12)C(=O)N[C@@H](CC(C)C)C(=O)N[C@@H](CC(C)C)C(=O)N[C@@H](C)C(=O)N[C@@H](CCC(N)=O)C(=O)N[C@@H](CCCCN)C(N)=O)C(C)C)[C@@H](C)CC
# B5: AT121 [hGIP(5-30)NH2-C14/5] (peptide)
# peptide: Myristoyl-TFISDYSIAMDKIHQQDFVNWLLAQK-NH2
# SMILES: CCCCCCCCCCCCCC(=O)N[C@H](C(=O)N[C@@H](Cc1ccccc1)C(=O)N[C@H](C(=O)N[C@@H](CO)C(=O)N[C@@H](CC(=O)O)C(=O)N[C@@H](Cc1ccc(O)cc1)C(=O)N[C@@H](CO)C(=O)N[C@H](C(=O)N[C@@H](C)C(=O)N[C@@H](CCSC)C(=O)N[C@@H](CC(=O)O)C(=O)N[C@@H](CCCCN)C(=O)N[C@H](C(=O)N[C@@H](Cc1c[nH]cn1)C(=O)N[C@@H](CCC(N)=O)C(=O)N[C@@H](CCC(N)=O)C(=O)N[C@@H](CC(=O)O)C(=O)N[C@@H](Cc1ccccc1)C(=O)N[C@H](C(=O)N[C@@H](CC(N)=O)C(=O)N[C@@H](Cc1c[nH]c2ccccc12)C(=O)N[C@@H](CC(C)C)C(=O)N[C@@H](CC(C)C)C(=O)N[C@@H](C)C(=O)N[C@@H](CCC(N)=O)C(=O)N[C@@H](CCCCN)C(N)=O)C(C)C)[C@@H](C)CC)[C@@H](C)CC)[C@@H](C)CC)[C@@H](C)O
# What was measured:
# [1] = molecular target: T1, human GIP receptor; assay: 125I-hGIP competition binding, COS-7/hGIPR, 0.1% casein;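 also: nonspecific binding defined as radioligand binding measured on untransfected cells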
# Protocol: (§1) After incubation, the cells were washed twice in ice-cold binding buffer (+/−2% HSA) and lysed using 200 mM NaOH with 1% SDS for 30 min. Nonspecific binding was determined as the binding of radioactive ligand to untransfected cells.
# [2] = molecular target: T1, human GIP receptor; assay: 125I-hGIP competition binding, COS-7 cells expressing hGIPR;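 also: nonspecific binding taken as radioligand bound by untransfected cells, binding buffer with or without 2% HSA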
# Protocol: as §1
# [3] = molecular target: T1, human GIP receptor; assay: 125I-hGIP competition binding, COS-7/hGIPR, 2% HSA;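 also: nonspecific binding defined as radioligand binding to untransfected cells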
# Protocol: as §1
# [4] = molecular target: T1, human GIP receptor; assay: IC50 with 2% HSA over IC50 with 0.1% casein, 125I-hGIP competition, COS-7/hGIPR
# Protocol: as §1
Binder,IC50 [1],logIC50 [1],IC50 [2],log IC50 [2],IC50 [3],logIC50 [3],Fold change HSA (2%)/Casein (0.1%) [4]
EGTFISDYSIAMDK(Stearoyl)IHQQDFVNWLLAQK-NH2 [AT114 [hGIP(3-30)NH2-C18/16]],489 nM,-6.3 log M,622 nM,-6.2 log M,5460 nM,-5.3 log M,11.2 fold
B1,62 nM,-7.2 log M,71.2 nM,-7.1 log M,321 nM,-6.5 log M,5.2 fold
B2,110 nM,-7 log M,292 nM,-6.5 log M,1730 nM,-5.8 log M,15.7 fold
B3,1900 nM,-5.7 log M,1900 nM,-5.7 log M,12400 nM,-4.9 log M,6.5 fold
B4,369 nM,-6.4 log M,194 nM,-6.7 log M,2660 nM,-5.6 log M,7.2 fold
B5,170 nM,-6.8 log M,173 nM,-6.8 log M,966 nM,-6 log M,5.7 fold
EGTFISDYSIAMDK(Myristoyl)IHQQDFVNWLLAQK-NH2 [AT111 [hGIP(3-30)NH2-C14/16]],407 nM,-6.4 log M,261 nM,-6.6 log M,2090 nM,-5.7 log M,5.1 fold
